Assay results as given in patent US20200024330A1.

Assays:
Test in all cases: cell-based or functional assay
[1] = target: HIV-1 IAVI-C3 envelope glycoprotein (Env) on pseudovirus (HIV-1)
[2] = target: HIV-1 92RW020 Env (pseudovirus) (HIV-1 92RW020)
[3] = target: HIV-1 ADA Env (pseudovirus) (HIV-1 ADA)
[4] = target: HIV-1 APV-17 envelope glycoprotein (Env) on pseudovirus (HIV-1)
[5] = target: HIV-1 JR-CSF Env, wild type (pseudovirus) (HIV-1 JR-CSF) (UniProt P20871)
[6] = target: HIV-1 Env of isolate 92RW009 (HIV-1)
[7] = target: HIV-1 Env of isolate 92RW020 (HIV-1)
[8] = target: HIV-1 Env of isolate 93RW029 (HIV-1)
[9] = target: HIV-1 Env of isolate MGRM-C-025 (subtype C), on pseudovirus (HIV-1)
[10] = target: HIV-1 Env of isolate MGRM-C-027 (subtype C), on pseudovirus (HIV-1)
[11] = target: HIV-1 Env of isolate MGRM-C-028 (subtype C), on pseudovirus (HIV-1)
[12] = target: HIV-1 Env of isolate MGRM-F1-020 (clade F), on pseudovirus (HIV-1)
[13] = target: HIV-1 Env of isolate PVO.4 (subtype B) (HIV-1)
[14] = target: HIV-1 envelope glycoprotein (Env) of isolate 6535.3, on pseudovirus (HIV-1)
[15] = target: HIV-1 envelope glycoprotein (Env) of isolate APV_17, on pseudovirus (HIV-1)
[16] = target: HIV-1 envelope glycoprotein (Env) of isolate MGRM-Chronic-B-004, on pseudovirus (HIV-1)
[17] = target: HIV-1 envelope glycoprotein (Env) of isolate MGRM-Chronic-B-010, on pseudovirus (HIV-1)
[18] = target: HIV-1 envelope glycoprotein (Env) of isolate MGRM-Chronic-B-012, on pseudovirus (HIV-1)
[19] = target: HIV-1 APV13 Env (pseudovirus) (HIV-1)
[20] = target: HIV-1 APV6 Env (pseudovirus) (HIV-1)
[21] = target: HIV-1 MGRM-C-026 Env (pseudovirus) (HIV-1)
[22] = target: HIV-1 MGRM-C-027 Env (pseudovirus) (HIV-1)
[23] = target: HIV-1 APV17 envelope glycoprotein (Env) (HIV-1)
[24] = target: HIV-1 JR-CSF Env D417A (HIV-1 (isolate JR-CSF)) (UniProt P20871)
[25] = target: HIV-1 JR-CSF Env F210A (HIV-1 JR-CSF) (UniProt P20871)
[26] = target: HIV-1 JR-CSF Env H330A (HIV-1 isolate JR-CSF) (UniProt P20871)
[27] = target: HIV-1 JR-CSF Env I307A (HIV-1 JR-CSF) (UniProt P20871)
[28] = target: HIV-1 JR-CSF Env I414A (HIV-1 (isolate JR-CSF)) (UniProt P20871)
[29] = target: HIV-1 JR-CSF Env I415A (HIV-1 (isolate JR-CSF)) (UniProt P20871)
[30] = target: HIV-1 JR-CSF Env I420A (HIV-1 (isolate JR-CSF)) (UniProt P20871)
[31] = target: HIV-1 JR-CSF Env N301A (HIV-1 JR-CSF) (UniProt P20871)
[32] = target: HIV-1 JR-CSF Env N302A (HIV-1 JR-CSF) (UniProt P20871)
[33] = target: HIV-1 JR-CSF Env N392Q (HIV-1 (isolate JR-CSF)) (UniProt P20871)
[34] = target: HIV-1 JR-CSF Env P313A (HIV-1 JR-CSF) (UniProt P20871)
[35] = target: HIV-1 JR-CSF Env R304A (HIV-1 JR-CSF) (UniProt P20871)
[36] = target: HIV-1 JR-CSF Env R315A (HIV-1 isolate JR-CSF) (UniProt P20871)
[37] = target: HIV-1 JR-CSF Env R419A (HIV-1 (isolate JR-CSF)) (UniProt P20871)
[38] = target: HIV-1 JR-CSF Env T297A (HIV-1 JR-CSF) (UniProt P20871)
[39] = target: HIV-1 JR-CSF Env T319A (HIV-1 isolate JR-CSF) (UniProt P20871)
[40] = target: HIV-1 JR-CSF Env T394A (HIV-1 (isolate JR-CSF)) (UniProt P20871)
[41] = target: HIV-1 JRFL envelope glycoprotein (Env) (HIV-1)

2G12 (antibody)
IC90 (pseudovirus neutralization) [1]: > 50 µg/mL

1443_C16 (PG16) (TCN-116) (antibody)
IC50 (ug/ml), neutralization [2]: 0.09 µg/mL
IC50 (ug/ml), neutralization [3]: 0.004 µg/mL
IC90 (pseudovirus neutralization) [4]: > 50 µg/mL
IC90 (pseudovirus neutralization) [1]: > 50 µg/mL
IC50 (ug/ml), neutralization [5]: 0.001 µg/mL

1496_C09 (PG9) (TCN-109) (antibody)
IC50 (ug/ml), neutralization [2]: 0.1 µg/mL
IC50 (ug/ml), neutralization [3]: 0.2 µg/mL
IC50 [6]: 0.05 µg/mL
IC50 [7]: 0.141 µg/mL
IC50 [8]: 0.69 µg/mL
IC50 (µg/mL), pseudovirus neutralization [9]: 0.148 µg/mL
IC50 (µg/mL), pseudovirus neutralization [10]: 5.36 µg/mL
IC50 (µg/mL), pseudovirus neutralization [11]: 0.067 µg/mL
IC50 (µg/mL), single-round pseudovirus neutralization [12]: 6.4 µg/mL
IC50 (µg/mL), pseudovirus neutralization [13]: 24.8 µg/mL
IC50 (ug/ml), neutralization [5]: 0.006 µg/mL
IC50, pseudovirus neutralization [14]: 1.05 µg/mL
IC50, pseudovirus neutralization [15]: 34.8 µg/mL
IC50, pseudovirus neutralization [16]: 0.533 µg/mL
IC50, pseudovirus neutralization [17]: 0.004 µg/mL
IC50, pseudovirus neutralization [18]: 0.2 µg/mL

4838_L06 (PGT-121) (antibody)
neutralization IC80 [19]: 1.31 µg/mL
neutralization IC90 [19]: 2.8 µg/mL
neutralization IC95 [19]: 5.15 µg/mL
neutralization IC80 [20]: 0.145 µg/mL
neutralization IC95 [20]: 0.569 µg/mL
neutralization IC95 [21]: 0.0687 µg/mL
neutralization IC80 [22]: 0.0829 µg/mL
neutralization IC90 [22]: 0.374 µg/mL
neutralization IC95 [22]: 3.14 µg/mL

5141_B17 (PGT-126) (antibody)
IC50 [19]: 0.012 µg/mL
IC80 [19]: 0.0411 µg/mL
IC90 [19]: 0.084 µg/mL
IC95 [19]: 0.162 µg/mL
IC50 [20]: 0.0249 µg/mL
IC80 [20]: 0.0681 µg/mL
IC90 [20]: 0.123 µg/mL
IC95 [20]: 0.213 µg/mL
IC50 [21]: 0.0076 µg/mL
IC80 [21]: 0.0345 µg/mL
IC90 [21]: 0.0831 µg/mL
IC95 [21]: 0.185 µg/mL
IC50 [22]: 1.14 µg/mL
IC80 [22]: > 10 µg/mL
IC90 [22]: > 10 µg/mL
IC95 [22]: > 10 µg/mL

PGT-121 (antibody)
IC50 neutralization [23]: 0.095 µg/mL
Fold IC50 increase relative to wild-type [24]: 0.7 fold
Fold IC50 increase relative to wild-type [25]: 1.5 fold
Fold IC50 increase relative to wild-type [26]: 0.8 fold
Fold IC50 increase relative to wild-type [27]: 3.7 fold
Fold IC50 increase relative to wild-type [28]: 0.5 fold
Fold IC50 increase relative to wild-type [29]: 0.6 fold
Fold IC50 increase relative to wild-type [30]: 3.3 fold
Fold IC50 increase relative to wild-type [31]: 0.4 fold
Fold IC50 increase relative to wild-type [32]: 0.7 fold
Fold IC50 increase relative to wild-type [33]: 0.9 fold
Fold IC50 increase relative to wild-type [34]: 0.5 fold
Fold IC50 increase relative to wild-type [35]: 1.7 fold
Fold IC50 increase relative to wild-type [36]: 0.9 fold
Fold IC50 increase relative to wild-type [37]: 1.8 fold
Fold IC50 increase relative to wild-type [38]: 0.7 fold
Fold IC50 increase relative to wild-type [39]: 1.3 fold
Fold IC50 increase relative to wild-type [40]: 0.2 fold
IC50 neutralization [41]: 0.0276 µg/mL

PGT-122 (antibody)
IC50 neutralization [23]: 0.522 µg/mL
Fold IC50 increase relative to wild-type [24]: 0.5 fold
Fold IC50 increase relative to wild-type [25]: 2.6 fold
Fold IC50 increase relative to wild-type [26]: 0.5 fold
Fold IC50 increase relative to wild-type [27]: 3.8 fold
Fold IC50 increase relative to wild-type [28]: 0.5 fold
Fold IC50 increase relative to wild-type [29]: 0.4 fold
Fold IC50 increase relative to wild-type [30]: 3.5 fold
Fold IC50 increase relative to wild-type [31]: 0.4 fold
Fold IC50 increase relative to wild-type [32]: 1.1 fold
Fold IC50 increase relative to wild-type [33]: 1 fold
Fold IC50 increase relative to wild-type [34]: 0.4 fold
Fold IC50 increase relative to wild-type [35]: 0.7 fold
Fold IC50 increase relative to wild-type [36]: 0.5 fold
Fold IC50 increase relative to wild-type [37]: 0.8 fold
Fold IC50 increase relative to wild-type [38]: 0.6 fold
Fold IC50 increase relative to wild-type [39]: 0.5 fold
Fold IC50 increase relative to wild-type [40]: 0.6 fold
IC50 neutralization [41]: 0.0471 µg/mL

PGV04 (antibody)
IC50 [6]: 0.108 µg/mL
IC50 [7]: 0.055 µg/mL
IC50 [8]: 0.54 µg/mL
IC50 (µg/mL), pseudovirus neutralization [9]: > 50 µg/mL
IC50 (µg/mL), pseudovirus neutralization [10]: 2.76 µg/mL
IC50 (µg/mL), pseudovirus neutralization [11]: 0.149 µg/mL
IC50 (µg/mL), single-round pseudovirus neutralization [12]: 5.99 µg/mL
IC50 (µg/mL), pseudovirus neutralization [13]: 0.454 µg/mL
IC50, pseudovirus neutralization [14]: 0.757 µg/mL
IC50, pseudovirus neutralization [15]: 0.309 µg/mL
IC50, pseudovirus neutralization [16]: 0.047 µg/mL
IC50, pseudovirus neutralization [17]: 0.744 µg/mL
IC50, pseudovirus neutralization [18]: > 50 µg/mL

b12 (antibody)
IC90 (pseudovirus neutralization) [4]: > 50 µg/mL
